Laboratory results: the DeepSol protein solubility set

experiment: soluble on expression in E. coli; label from the status in PepcDB or PDB records

| Sequence | soluble on expression in E. coli |
| --- | --- |
| GPWKGGRGRAASLLPLNRALGTTRPHKEGEVPGVDYIFITVEDFMELEKSGALLESGTYEDNYYGTPKPPAEPAPLLLNVTDQILPGATPSAEGKRKRNKSVSNMEKASIEPPEEEEEERPVVNGNGVVVTPESSEHEDKSAGASGEMPSQPYPAPVYSQPEELKEQMDDTKPTKPEDNEEPDPLPDNWEMAYTEKGEVYFIDHNTKTTSWLDPRLAKKAKPPEECKENELPYGWEKIDDPIYGTYYVDHINRRTQFENPVLEAKRKLQQHNMPHTELGTKPLQAPGFREKPLFTRDASQLKGTFLSTTLKKSNMGFGFTIIGGDEPDEFLQVKSVIPDGPAAQDGKMETGDVIVYINEVCVLGHTHADVVKLFQSVPIGQSVNLVLCRGYPLPFDPEDPANSMVPPLAIMERPPPVMVNGRHNYETYLEYISRTSQSVPDITDRPPHSLHSMPTDGQLDGTYPPPVHDDNVSMASSGATQAELMTLTIVKGAQGFGFTIADSPTGQRVKQILDIQGCPGLCEGDLIVEINQQNVQNLSHTEVVDILKDCPIGSETSLIIHRGGFFSPWKTPKPIMDRWENQGSPQTSLSAPAIPQNLPFPPALHRSSFPDSTEAFDPRKPDPYELYEKSRAIYESRRPDYKELDVHLRRMESGFGFRILGGDEPGQPILIGAVIAMGSADRDGRLHPGDELVYVDGIPVAGKTHRYVIDLMHHAARNGQVNLTVRRKVLCGGEPCPENGRSPGSVSTHHSSPRSDYATYTNSNHAAPSSNASPPEGFASHSLQTSDVVIHRKENEGFGFVIISSLNRPESGSTITVPHKIGRIIDGSPADRCAKLKVGDRILAVNGQSIINMPHADIVKLIKDAGLSVTLRIIPQEELNSPTSAPSSEKQSPMAQQSPLAQQSPLAQPSPATPNSPIAQPAPPQPLQLQGHENSYRSEVKARQDVKPDIRQPPFTDYRQPPLDYRQPPGGDYQQPPPLDYRQPPLLDYRQHSPDTRQYPLSDYRQPQDFDYFTVDMEKGAKGFGFSIRGGREYKMDLYVLRLAEDGPAIRNGRMRVGDQIIEINGESTRDMTHARAIELIKSGGRRVRLLLKRGTGQVPEYDEPAPWSSPAAAAPGLPEVGVSLDDGLAPFSPSHPAPPSDPSHQISPGPTWDIKREHDVRKPKELSACGQKKQRLGEQRERSASPQRAARPRLEEAPGGQGRPEAGRPASEARAPGLAAADAADAARAGGKEAPRAAAGSELCRREGPGAAPAFAGPGGGGSGALEAEGRAGARAGPRPGPRPPGGAPARKAAVAPGPWKVPGSDKLPSVLKPGASAASR | soluble |
| MVKKITVYTAFGQFLKMVELQMEQEMEKMNEIETDKLPIDHQLSDYQNNIESGNDRQVQSCPVDVSIPKEVMKCASCPLLCFNCSVQMPVSPVPTTIESRKINETTQLMMEFWKIVASKSEEEKLPSLFENVEGLFSVPFSTFGTWDDDTLSGVTSLNFEKSDEQLSEQDDDKTTVWSSNFPSAHVLTVYENSEQKTDEMADDEMSDTTSSFLSTLSTTMSAQVPALHLLQRVQLQRSVIKKQKKIIDSFSELQNLNKKLADLRKKHRD | not soluble |
| YEMSSVGVINLRNMYSTYDPTEVKGKINEGPPFSGSLFYKNIPYGNSSIELKVEMNSVEKANFFSGKRVDIFTLEYSPPSNSNIKKNSYGGITLSDGNRIDKKNIPVNIFIDGVQQKYSYTDISTVSTDKKEVTIQELDVKSRYYLQKHFNIYGFGDVKDFGRSSRFQSGFEEGNIIFHLNSGERISYNMFDTGHGDRESMLKKYSDNKTAYSDQLHIDIYLVKFNK | soluble |
| MSLIKLIATDMDGTLLNAAHEISQPNIDAIKYAQEQGITVVIATGRAFYEAQAPVADTDLTVPYICLNGAEVRDETFNVMSTSHLNKSLVHKITNVLKDAGIYYQVYTSRAIYTEDPQRDLDIYIDIAERAGQHANVERIKNGIQRRIDNGTLKVVDNYDAIENIPGELIMKILAFDGNLEKIDKASKILAESPNLAISSSSRGNIEITHSDAQKGIALETIAERLGIEMKDVMAIGDNLNDLSMLEKVGYPVAMENGAEEVKKIAKYVTDTNENSGVGKAIMKLLREQEGHHHHHH | soluble |
| STTIYDLKKQKDKLLKFYAESDEQILMKNRKTLHKAKNEDLDRVLKEWIRQRRSEHMPLNGMLIMKQAKIYHNELKIEGNCEYSTGWLQKFKKRHGIKFLKTCGNKASAGHEATEKFTGKFSNDDEQDGNFEGFSMSSEKKIMSDLLTYTKNIHPETVSKLEEEDIKDVFNSNNEAPVVHSLSNGEVTKMVLNQDDHDDNDNEDDVNTAEKVPIDDMVKMCDGLIKGLEQHAFITEQEIMSVYKIKERLLRQKASLMRQMTLKETFKKAIQRNASSSLQDPLLGPSTASDASSHLKIK | soluble |
| MQKFDTRTFQGLILTLQDYWARQGCTIVQPLDMEVGAGTSHPMTCLRELGPEPMAAAYVQPSRRPTDGRYGENPNRLQHYYQFQVVIKPSPDNIQELYLGSLKELGMDPTIHDIRFVEDNWENPTLGAWGLGWEVWLNGMEVTQFTYFQQVGGLECKPVTGEITYGLERLAMYIQGVDSVYDLVWSDGPLGKTTYGDVFHQNEVEQSTYNFEYADVDFLFTCFEQYEKEAQQLLALENPLPLPAYERILKAAHSFNLLDARKAISVTERQRYILRIRTLTKAVAEAYYASREALGFPMCNKDKLEHHHHHH | not soluble |
| MHEYPITKRIIEISQEHANKHNAKEVKQINLVVGDYSGYVASSIELYFGIIAEGTVCENAKLNIKRVKPMLKCNECESLFVRKPFSFECPYCGGQGSPTEIGHEFYIESIEI | soluble |
| MKFPFHPWRRLLLCALPFAALLTACDDGKKEPPPKPAEVTTYNSVPWDALPATSDADLLAGFNAWRSACARLAKDPVWGEPCASATTVAADPTAVRAFLQERMQVYSLRSSSNGDQGLITGYYEPVYHGSLSQGEKTPVPVYGVPDDLVVVALESVYPELKGKRLRGRLEGRVLKPYDDAATIRDNGSSAPVLAWLGDPMDLQFLQIQGSGRIQLEDGRQLRIGYGDQNGHPYKPVGRWLVEQGLVPKEEISMKRIRDWAEANPQRVSELLASNPSFVFFSLRPDSDEGPRGSLNVPLTDGYSVAIDRKVIPLGSLMWLSTTRPDDGSAVVRPVAAQDTGGAIVGEVRADLFWGTGDAAGELAGHMKQPGRLWLLWPKGAPLPAS | not soluble |
| SLEEYHKWYYGNLVWTKTTYMGINCWKSVSDMWNYQEILSELQPSLVIEFGTRYGGSAVYFANIMRQIGQPFKVLTVDNSHKALDPRARREPDVLFVESSSTDPAIAEQIQRLKNEYPGKIFAILDSDHSMNHVLAEMKLLRPLLSAGDYLVVEDSNINGHPVLPGFGPGPYEAIEAYEDEFPNDYKHDAERENKFGWTSAPNGFLIRN | soluble |
| MVEKPDINYQNKNVLHEINICYLGIMNKSLIALGAQTARRFLSSSSKNTIGGGDANRADTGVLDGYHINPLEESDMTDRSRISMLSTEMLEAKQIGVRGLSCYGFRLLDGTFLYGPIALFPKTALSWRVPTPEDITPRSLALFAALEPKIDILVLGVGDKKNIDKVRASVAPFLREHKIGLEIMDTEDAIATFNFLNAEGRYVGAALYPPDDMVVTDKEYGRALALLKGWDTVEENPLLTGLSDTINGAEDLVKRLWSGDEKSWQSARQKVLESPSEREERMQQEMNDKEKKRIE | not soluble |
| DVQLQESGTVLARPGASVKMSCKASGYSFTSYWMHWIKQRPGQGLEWIGGVYPGDSHTSYNQKFKGKAKLTAVTSASTAYMELSSLTNEDSAVYYCTRSGFDYGNEDWGQGTTLTVSSAKTTPPSVYPLAPGSAAQTNSMVTLGCLVKGYFPEPVTVTWNSGSLSSGVHTFPAVLQSDLYTLSSSVTVPSSPRPSETVTCNVAHPASSTKVDKKI | soluble |
| LYAHAVESLRHEITAVLLIAKPEDEVLLRLESPGGVVHGYGLAASQLRRLRERNIPLTVAVDKVAASGGYMMACVADKIVSAPFAVIGSVGVVAEVPNIHRLLKKHDIDVDVMTAGEFKRTVTFMGENTEKGKQKFRQELEETHQLFKQFVSENRPGLDIEKIATGEHWFGRQALALNLIDEISTSDD | not soluble |
| MKTNKKDEETGGNVYAHLDKTSVLQEARAFNETPINARKCCFILSKLIYIIQQGESIGRTEATEAFFGVTKLWQSKDVSLRRMVYLAVKELAEVSDDVIIVTSSLTKDMTGREDLYRAAAIRALCKITDTGMLQTIERYMKQAIVDRNSAISSSAIVSSIHLMRKSSEVVRRWANEVQEAVSSDNHMVQYHALALLYQIRANDRLAVNKLVQKFSKNALRSPYAVCYLIRIATRCLVDDDQPDSSVFTFIESCLRHKSEMVVYEAARAIVSLPQTTPSEIQPAITALQMCCTSPKAAVRFAAVRTLNKVAMAHPNAVMSCNVDLEKFITDPNRSIATLAITTLLKTGAESSVERLMQQIAGFVNEISDEFKIVVVDAIRSLCSRYPRKHTVMMPFLAKMLRSDGSYDYKKAIVETIIAIIEENPDAKVAGLAHLCEFIEDCEHDNLSTRVLHLLGREAPKTPNPSSYIRFIYNRVILESTKVRAAAVTALAKFGAQCVDLRPSIQVLLKRCLLDSDDEVRDRATFYLKMLTEAAEGLIHNFILDGLQVSPSGLERSILDYLRSGSYSSPFDLRVVPVTQQALSQPEKRVPQLVEEEEKPKAPKVEPYAAQLAAIPQFAALGPVFKSSTRIALTESIAEYTVHMIKHTFANAMVLQFECKNTMNDQLLLDVSVELEDPDGEWETGNTVQIDKLPYGEVHSAFSLLEFPDSGAISGSLGAILKFKVMDVDPTSGEPDSDDTYEQTYVLEEVDVNVSDSVQGVAKSSFGSAWEALGDDATREETFQLSTVENIPDAVKKISEILGLVPCERSDRVPEGKTQHTVFLSGVFRGGYDVLSKATVAVDPNDNSIAMNIIIKSNEPLVADLVISAVV | not soluble |
| HQCQGCGSTQLISVGVGTEQLETQLTNLFPEYKTVRIDRDSTRRKGSLEDYLEAIKNNEYQILIGTQMLAKGHHFPNVTLVGLIDVDSSLFSSDFRAPERLAQLFIQVAGRAGRASKPGEVILQTHHPE | not soluble |
| MTRTETLELLVATLQQTNASQSESIRQLTRQNEQLQNKLDELLAQVAWLNRQLFGRKSEKLSRLDPNQLSLFEQPVQSLEPEPLEETVVEQTTTPMVTKKKERQNRKLLEGLPVVEVVIEPQDLDLTKYKRIGEEHTRTLEFEPGKLYVKEIIRPKYGLKDNTALPQEYQDGIVIADLPLLPIYKGLPGASLLAEILLQKYEYHVPFYRQIREFHHLGLKIPENTLHGWFKPACELLKPLYDELKKQVLAVDYIQVDETTLPIINKQSHKAVREYLWMVRAVTSGLVFFHYDDGSRSQETARNLLEPFKGYLQSDGYAAYNVFEGKERVCLVGCLVHIRRHYETAKEENKSQAKYVLAKIQELYRIEQAADIQGISPEMRMSKRQKQALPILDELEQWMETTYPKVLPKSQMGQAIAYAYTLWPRMRNYLKDGKLKIDNNLAENAIRPIALSRKNFLFCGNHEAAENTDVICSLLASCKASQVNPREWLTEIIAWLPYYTRDKGKDLKELLPNYWKLRRSKEI | not soluble |
| EERFAELFAAVDWISLGGGIHFTAENYPLETFAERLKHFSKTYDVTIFLEPGEAAITKSTTLEVSVLDTLYNEKNLAIVDSSIEAHMLDLLIYRENAKLEQNQGPYEIMVCGKSCLAGDIFGTFRFPEPLKIGDRLSFQDTAGYTMVKKNWFNGVTMPAIVIKECNGALTIQRQFSYNDYQKSLS | not soluble |
| MSLTLDELDSHLFKCADIIRDAVDPTDYKEYILPLVFYKAISDEYEQEREEIVEEYGEDFADNANLYDVPIVPEGHRWNDLRQESENVDEAINNAFTEFTQANPDLSGIFNANFMEAGGLTDDRLIKLVEHLSTYDLDRDSVPPDMLGEAYMDLVRHFAEEEGKSGGQFFTPPHIVQLCVRLVDDFADGMTFHDPTVGSGGMLTEAAKYYREAQGGDPSKLTFTGQEINPDIAAIARMNLSLHTLNGEIERGDSLASPGFTDGDDLERFDRVLANFPFSADWAKDDLQDDQYGRFDWHTKLPRADRGDYAFIMHIAEQLKEPDCGDESGGKAAIVIPHGVLFRKHEQRYRQPMLENDLVEAIVGLPENLFQNNSIPSAILVLNTDKPADREGEVQFIHAADEAFYEELSNQNELTDDGLDHIVENFDDWTTEERVSRTVGIEEIEENDFNLNIALYVDTTEPEEDIDVNEELAELRELQAEREEIESRMTEHMEALQYE | soluble |
